{
  "source": "patent US20070258988A1",
  "about": "(SLOAN KETTERING INSTITUTE FOR CANCER RESEARCH, published 2007)",
  "key": {"rMOR-1A [1]": {"molecular_target": "T1, rMOR-1A (rat)", "T1 chain": "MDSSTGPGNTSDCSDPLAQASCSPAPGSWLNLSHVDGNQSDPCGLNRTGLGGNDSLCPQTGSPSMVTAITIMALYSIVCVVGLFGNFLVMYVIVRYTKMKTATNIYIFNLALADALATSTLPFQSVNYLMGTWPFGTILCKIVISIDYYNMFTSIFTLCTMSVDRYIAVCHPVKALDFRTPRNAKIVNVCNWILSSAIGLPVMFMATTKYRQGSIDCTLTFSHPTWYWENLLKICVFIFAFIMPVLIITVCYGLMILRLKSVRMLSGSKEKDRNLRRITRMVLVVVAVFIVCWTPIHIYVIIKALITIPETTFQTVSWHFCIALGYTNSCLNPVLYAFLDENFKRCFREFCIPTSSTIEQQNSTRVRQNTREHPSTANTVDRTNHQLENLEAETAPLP", "assay": "competition against [3H]DAMGO (~1 nM), membranes of stable CHO transfectants", "description": "(§1) ANOVA was performed, followed by Tukey's post hoc analysis. Results are the mean ±S.E. of at least three independent determinations."}, "rMOR-1C1 [2]": {"molecular_target": "T2, rMOR-1C1 (rat)", "T2 construct": "whole, on cells", "assay": "competition against [3H]DAMGO (~1 nM), membranes of stable CHO transfectants", "description": "as §1"}, "rMOR-1D [3]": {"molecular_target": "T3, rMOR-1D (rat)", "T3 construct": "whole, on cells", "assay": "competition against [3H]DAMGO (~1 nM), membranes of stable CHO transfectants", "description": "as §1"}, "rMOR-1 (no Exon 4) [4]": {"molecular_target": "T4, rMOR-1 (no Exon 4) (rat, UniProt P33535 1-386, limits assumed)", "T4 construct": "domain: no Exon 4; also called rMOR-1 no E 4; rMOR-1 (no E4)", "assay": "competition against [3H]DAMGO (~1 nM), membranes of stable CHO transfectants", "description": "as §1"}, "rMOR-1A [5]": {"molecular_target": "T1, rMOR-1A", "assay": "cell-based or functional assay"}, "rMOR-1": {"molecular_target": "rMOR-1 (rat, UniProt P33535 1-398)", "assay": "cell-based or functional assay"}, "rMOR-1C1 [6]": {"molecular_target": "T2, rMOR-1C1", "assay": "cell-based or functional assay"}, "rMOR-1D [7]": {"molecular_target": "T3, rMOR-1D", "assay": "cell-based or functional assay"}, "rMOR-1 (no Exon 4) [8]": {"molecular_target": "T4, rMOR-1 (no Exon 4)", "assay": "cell-based or functional assay"}, "hMOR-1 (exons 1-3)": {"molecular_target": "hMOR-1 (exons 1-3) (human, UniProt P35372 1-388)", "assay": "cell-based or functional assay"}, "hMOR-1B3": {"molecular_target": "hMOR-1B3 (human, UniProt P35372 1-388)", "assay": "cell-based or functional assay"}, "hMOR-1B5": {"molecular_target": "hMOR-1B5 (human, UniProt P35372 1-388)", "assay": "cell-based or functional assay"}, "hMOR-1B2": {"molecular_target": "hMOR-1B2 (human, UniProt P35372 1-388)", "assay": "cell-based or functional assay"}, "hMOR-1": {"molecular_target": "hMOR-1 (human, UniProt P35372 1-400)", "assay": "cell-based or functional assay"}, "hMOR-1Y": {"molecular_target": "hMOR-1Y (human, UniProt P35372 1-388)", "assay": "cell-based or functional assay"}, "hMOR-1A": {"molecular_target": "hMOR-1A (human)", "assay": "cell-based or functional assay"}, "hMOR-1B4": {"molecular_target": "hMOR-1B4 (human, UniProt P35372 1-388)", "assay": "cell-based or functional assay"}, "hMOR-1B1": {"molecular_target": "hMOR-1B1 (human, UniProt P35372 1-388)", "assay": "cell-based or functional assay"}},
  "data": [
    {"binder": "YGGFMTSEKSQTPLVTLFKNAIIKNAYKKGE (peptide, UniProt P01189 237-267, looked up, also called B-Endorphin)", "note": "[β-Endorphin]", "values": [
      {"measurement": "Ki", "setting": "rMOR-1A [1]", "value": 10.5, "unit": "nM"},
      {"measurement": "Ki", "setting": "rMOR-1C1 [2]", "value": 8.8, "unit": "nM"},
      {"measurement": "Ki", "setting": "rMOR-1D [3]", "value": 8.5, "unit": "nM"},
      {"measurement": "Ki", "setting": "rMOR-1 (no Exon 4) [4]", "value": 10, "unit": "nM"},
      {"measurement": "Max Stim (%)", "setting": "rMOR-1A [5]", "value": 177, "unit": "%"},
      {"measurement": "EC50 (nM), stimulation of [35S]GTPγS binding", "setting": "rMOR-1", "value": 4, "unit": "nM"},
      {"measurement": "Max Stim (%)", "setting": "rMOR-1", "value": 246, "unit": "%"},
      {"measurement": "Max Stim (%)", "setting": "rMOR-1C1 [6]", "value": 361, "unit": "%"},
      {"measurement": "EC50 (nM), stimulation of [35S]GTPγS binding", "setting": "rMOR-1D [7]", "value": 91, "unit": "nM"},
      {"measurement": "Max Stim (%)", "setting": "rMOR-1D [7]", "value": 165, "unit": "%"},
      {"measurement": "EC50 (nM), stimulation of [35S]GTPγS binding", "setting": "rMOR-1 (no Exon 4) [8]", "value": 90, "unit": "nM"},
      {"measurement": "Max Stim (%)", "setting": "rMOR-1 (no Exon 4) [8]", "value": 240, "unit": "%"},
      {"measurement": "Max Inhib (%)", "setting": "hMOR-1 (exons 1-3)", "value": 73, "unit": "%"},
      {"measurement": "Max Inhib (%)", "setting": "hMOR-1B3", "value": 73, "unit": "%"},
      {"measurement": "Max Inhib (%)", "setting": "hMOR-1B5", "value": 69, "unit": "%"},
      {"measurement": "Max Inhib (%)", "setting": "hMOR-1B2", "value": 65, "unit": "%"},
      {"measurement": "Max Inhib (%)", "setting": "hMOR-1", "value": 79, "unit": "%"},
      {"measurement": "Max Inhib (%)", "setting": "hMOR-1Y", "value": 90, "unit": "%"},
      {"measurement": "Max Inhib (%)", "setting": "hMOR-1A", "value": 73, "unit": "%"},
      {"measurement": "Max Inhib (%)", "setting": "hMOR-1B4", "value": 69, "unit": "%"},
      {"measurement": "Max Inhib (%)", "setting": "hMOR-1B1", "value": 65, "unit": "%"}
    ]}
  ]
}
